In patent US20180346555A1 (Regeneron, published 2018):

T1: natural Bet v 1 (Betula verrucosa (Betula pendula), UniProt P15494 2-160)
T1 construct: Bought natural protein; also called nBet v 1
T1 chain: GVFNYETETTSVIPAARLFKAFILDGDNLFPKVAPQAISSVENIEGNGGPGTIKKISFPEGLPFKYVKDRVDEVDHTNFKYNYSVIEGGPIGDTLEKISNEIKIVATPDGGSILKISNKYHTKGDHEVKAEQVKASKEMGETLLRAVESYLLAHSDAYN


Legend:
[1] = target: T1, natural Bet v 1; assay: SPR Biacore 4000, mAb captured on anti-human Fc, 25C;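 further: purified anti-Bet v 1 mAbs probed with natural Bet v 1 in HBS-ET buffer (HEPES, NaCl, EDTA, Tween-20) at pH 7.4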
Procedure: (§1) Equilibrium dissociation constants (KD) for natural Bet v 1 binding to purified anti-Bet v 1 monoclonal antibodies were determined using a real-time surface plasmon resonance biosensor (SPR-Biacore) on a Biacore 4000 instrument. All binding studies were performed in 10 mM HEPES, 150 mM NaCl, 3 mM EDTA, and 0.05% v/v surfactant Tween-20, pH 7.4 (HBS-ET) running buffer at 25° C. and 37° C. […] Association (kₐ) and dissociation (kd) rate constants were determined by fitting the real-time binding sensorgrams to a 1:1 binding model with mass transport limitation using Scrubber 2.0c curve-fitting software. Binding dissociation equilibrium constants (KD) and dissociative half-lives (t½) were calculated from the kinetic rate constants as:

[2] = target: T1, natural Bet v 1; assay: SPR Biacore 4000, mAb captured on anti-human Fc, 37C;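 further: kinetic rate constants from SPR sensorgrams fitted to a 1:1 model with mass transport limitation, HBS-ET buffer pH 7.4, KD and t½ derived from the rate constants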
Procedure: as §1

| Binder | 100 nM natural Bet v 1 Bound (RU) [1] | Kd [1] | koff [1] | kon [1] | t½ [1] | 100 nM natural Bet v 1 Bound (RU) [2] | Kd [2] | koff [2] | kon [2] | t½ [2] |
| --- | --- | --- | --- | --- | --- | --- | --- | --- | --- | --- |
| H4H16967P (antibody, human IgG4, V domains shown) VH: QVQLVESGGGVVQPGRSLRLSCAASGFTFSSYGMHWFRQAPGKGLEWVGVIWSDGSDKKYADSVKGRFTISRDNSKNTLYLLMNSLRDDDTAVYHCAREGGFLYSSSSHFDYWGQGTLVTVSS VL: AIQMTQSPSSLSASVGDRVTITCRTSQGIRNDLGWYQQKPGKAPKLLIFAASSLQSGVPSRFSGSGSGTDFTLTISSLQPEDFAIYYCLQDYKYPFTFGGGTKVEIK | 27 RU | 3.98 nM | 0.000149 s⁻¹ | 37600 M⁻¹ s⁻¹ | 77 min | 45 RU | 14.3 nM | 0.000719 s⁻¹ | 50400 M⁻¹ s⁻¹ | 16 min |
| H4H17028P (antibody, human IgG4, V domains shown) VH: QVQLVESGGGVVQPGRSLRLSCAASGFTFSRYAIHWVRQAPGKGLEWVAVISYDGDDKYYGDSVKGRFTISRDNSKTMVYLHMNSLRTEDTAVYYCAKDGYSLYGKDYFDYWGQGTLVTVSS VL: EIVLTQSPGTLPLSPGERATLSCRASQSITNSYLAWYQQKPDQAPRLLIYGASSRATGIPDRFSGSESGTDFTLTISRLEPEDFAVYYCQQYVRSPWTFGQGTKVEIK | 63 RU | 3.79 nM | 0.00107 s⁻¹ | 281000 M⁻¹ s⁻¹ | 11 min | 71 RU | 7.77 nM | 0.0029 s⁻¹ | 373000 M⁻¹ s⁻¹ | 3.9 min |
| H4H16987P (antibody, human IgG4 S228P, kappa, V domains shown, Human IgG4; also called MAB4) VH: EVQLVESGGGLVQPGGSLRLSCAASGFTVSSNSMSWVRQAPGEGLEWVSVIFSGGITYYSDSVKGRFTISRHNSKNTLYLQMNSLRTEDTAVYYCARHSNWNFDAFDIWGQGTMVTVSS VL: DIQMTQSPSSLSASVGDRVTITCRASQSFDTYLNWYQQKPGKAPNLLIYATSSLQSGVPSRFSGSGSGTDFTLTISSLQPEDFGTYYCQQSYSIPYTFGQGTKLEIKR | 61 RU | 2.77 nM | 0.00114 s⁻¹ | 410000 M⁻¹ s⁻¹ | 10 min | 74 RU | 9.16 nM | 0.00477 s⁻¹ | 520000 M⁻¹ s⁻¹ | 2.4 min |
| H4H16950P (antibody, human IgG4, V domains shown) VH: QVQLVQSGAEVKKPGASVKVSCKTSGYTFTNYGITWVRQAPGQGLEWMGWISAYNGNTNYAQNVQGRVTMTTDTSTSTAYMEVRSLRSDDTAVYYCARRSSMLHFQHWGQGTLVTVSS VL: DIVMTQSPDSLAVSLGERATINCKSSQHVLYDSSNENYLAWFQQKPGQPPKLLIYWASTRESGVPDRFSGSGSGTDFTLTISSLQAEDVAVYYCQQYSSAPYTFGQGTKLEIK | 58 RU | 5.23 nM | 0.000503 s⁻¹ | 96100 M⁻¹ s⁻¹ | 23 min | 76 RU | 8.57 nM | 0.00121 s⁻¹ | 141000 M⁻¹ s⁻¹ | 10 min |
| H4H17027P (antibody, human IgG4, V domains shown) VH: EVQLVESGGGLVQPGGSLRLSCAASGFTFRNYAMHWVRQAPGEGLEWVAAIYRNSDSIDYADSVKGRFTISRDNAKNSLYLQMNSLKTEDTALYYCAKDEGFLEYFDSWGQGTLVTVSS VL: EIVLTQSPGTLSLSPGERASLSCRASQSVSSSFLAWYQQKPGQAPRLLIYGVSSRFIGIPDRFSGGGSGTDFTLTITRLEPEDFAVYYCQQYGRSPWTFGQGTKVEIK | 48 RU | 4.32 nM | 0.00027 s⁻¹ | 62400 M⁻¹ s⁻¹ | 43 min | 67 RU | 9.48 nM | 0.00093 s⁻¹ | 98100 M⁻¹ s⁻¹ | 12 min |
| H4H16960P (antibody, human IgG4, V domains shown) VH: QLQLQESGPGLVRPSETLSLTCTVSGGSISSSNYWWGWIRQPPGKGLEWIGSIYYSGITYYNPSLKSRVTISADTSKDQFSLKLRSVTAADTAVYYCAKLEWLRLDFWGQGTTVTVSS VL: DIQMTQSPSSVSASVGDRVTITCRASQGISSWLVWYQQKPGKVPKLLIYAASSLQSGVPLRFSGSGSGTDFTLTISSLQPEDFATYYCQQAKSFPLTFGQGTRLEIK | 57 RU | 1.64 nM | 0.00069 s⁻¹ | 422000 M⁻¹ s⁻¹ | 17 min | 65 RU | 2.54 nM | 0.00168 s⁻¹ | 662000 M⁻¹ s⁻¹ | 6.8 min |
| H4H16971P (antibody, human IgG4, V domains shown) VH: QVQLVESGGGVVQPGRSLRLSCAASGFTFSSYGLHWVRQAPGKGLEWVAVISDDGSYKFYADSMKGRFTISRDNSKNTLYLQMNSLRAEDTAVYYCAKDRGRSGWYYFDYWGQGTLVTVSS VL: not shown | 57 RU | 3.26 nM | 0.000781 s⁻¹ | 240000 M⁻¹ s⁻¹ | 15 min | 66 RU | 6.93 nM | 0.00244 s⁻¹ | 352000 M⁻¹ s⁻¹ | 4.7 min |

Binders with a lower Kd [1], results first:

| 100 nM natural Bet v 1 Bound (RU) [1] | Kd [1] | koff [1] | kon [1] | t½ [1] | 100 nM natural Bet v 1 Bound (RU) [2] | Kd [2] | koff [2] | kon [2] | t½ [2] | Binder |
| --- | --- | --- | --- | --- | --- | --- | --- | --- | --- | --- |
| 71 RU | 1.4 nM | 0.00023 s⁻¹ | 164000 M⁻¹ s⁻¹ | 50 min | 88 RU | 4.89 nM | 0.00127 s⁻¹ | 260000 M⁻¹ s⁻¹ | 9.1 min | H4H16943P (antibody, human IgG4, V domains shown, Fully human antibody) VH: EVQLVESGGGLVQPGGSLRLSCTASGFMSSMYWMSWVRQAPGKGLEWVSNIKQDGTEKNYVESVKGRFTISRDNAKNSLYLQINSLRGEDTAVYYCARDLYSSSSGYYYYGLDVWGQGTTVTVSS VL: DIVMTQSPLSLPVTPGEPASISCRSSQSLLHSNKYNYLDWYLQKPGQSPQLLIYLSSNRASGVPDRFSGSGSGTEFTLKISRVEAEDVGIYYCMQALHTPLTFGGGTKVEIK |
| 68 RU | 1.34 nM | 0.000246 s⁻¹ | 184000 M⁻¹ s⁻¹ | 47 min | 84 RU | 2.7 nM | 0.000792 s⁻¹ | 293000 M⁻¹ s⁻¹ | 15 min | H4H17015P (antibody, human IgG4, V domains shown) VH: QVQLQESGPGLVKPSQTLSLTCTVSGGSISSADHYWSWIRQQPGKGLEWIGYISYRGTTYYNPTLESRVSISVDTFKNQFSLMLHSVTVADTAVYYCAKVLQGLVRFRDYGFDVWGQGTTVTVSS VL: DIQLTQSPPFLSASVGDRVTITCWASQDISSYLAWYQQNPGKSPKLLIYDAFTLHTGVPSRFSGSGSGTEFTLTISSLQPEDFATFYCQHLYSFPFTFGPGTKVDIK |
| 41 RU | 1.21 nM | 0.000278 s⁻¹ | 230000 M⁻¹ s⁻¹ | 42 min | 52 RU | 1.8 nM | 0.000616 s⁻¹ | 342000 M⁻¹ s⁻¹ | 19 min | H4H16979P (antibody, human IgG4, V domains shown) VH: QVQLVQSGAEVKKPGASVKVSCKASGYTFIAYYLHWVRQAPGQGLEWMGLLNPYTGGSYYTQKFQGRVTMTRDTSIDTAYMELNSLRSDDTAIYYCARDKRSYYIPYAFEIWGQGTMVTVSS VL: not shown |
| 61 RU | 1.19 nM | 0.000469 s⁻¹ | 394000 M⁻¹ s⁻¹ | 25 min | 74 RU | 1.9 nM | 0.00119 s⁻¹ | 627000 M⁻¹ s⁻¹ | 10 min | H4H17033P (antibody, human IgG4, V domains shown) VH: QVQLVQSGAEVKKPGASVKVSCKASGYTFAAHYMHWVRQAPGQGLEWMGWINTYTGGTNYGQKFQGRVTMTRDTSITTAYMELSRLRSDDTAVYYCARDRRNWNFVFEYWGQGTLVTVSS VL: DIQMTQSPSSLSASVGDRVTISCRASQNIKNYLNWYQQKPGKAPKLLIYEASNLQSGAPSRFSGSGSGTDFTLTISSLEPEDFATYYCQQSFSIPWTFGQGTKVEIK |
| 57 RU | 1.06 nM | 0.000312 s⁻¹ | 295000 M⁻¹ s⁻¹ | 37 min | 66 RU | 2.16 nM | 0.00108 s⁻¹ | 500000 M⁻¹ s⁻¹ | 11 min | H4H16991P (antibody, human IgG4, V domains shown) VH: QVQLVQSGAEVRKPGASVKVSCKASGYTFTGYYLHWVRQAPGQGLEWMGLINPNTGGTNFAQKFQGRVTMTRDSSISAAYMELSRLRSDDTAVYYCARQHWNRYFDNWGQGTLVTVSS VL: DIQMTQSPSTLSASVGDRVTITCRASQSVGNWLAWYQQKPGKAPKLLIQEASSIESGVPSRFSGSGSGTEFTLIVSSLQPDDFATYYCQQYNSYSWTFGHGTKVEIK |
| 71 RU | 1 nM | 0.000329 s⁻¹ | 329000 M⁻¹ s⁻¹ | 35 min | 87 RU | 2.52 nM | 0.00122 s⁻¹ | 485000 M⁻¹ s⁻¹ | 9.5 min | H4H17001P (antibody, human IgG4, V domains shown) VH: QVQLVESGGGLVKPGGSLRLSCAASGFTFSDYYMNWIRQAPGKGLEWISLISSSGSAIYYSDSVKGRFTISRDNARKSLYLQVNSLRAEDTAVYYCARDRGEWALGAYYYGLDVWGQGTTVTVSS VL: DIVMTQSPLSLPVTPGEPASISCRSSQSLLHSDGYNYLDWYLQKSGQSPQLLIYLGSNRASGVPDRFSGSGSGTDFTLKISRMEAEDVGVYYCMQALQTPYTFGQGTKLEIK |
| 74 RU | 0.982 nM | 0.000201 s⁻¹ | 205000 M⁻¹ s⁻¹ | 58 min | 93 RU | 2.08 nM | 0.000601 s⁻¹ | 289000 M⁻¹ s⁻¹ | 19 min | H4H16946P (antibody, human IgG4, V domains shown) VH: EVQLVESGGGLVQPGGSLRLSCVASGFTFSNYDMNWVRQAPGEGLEWISYISYSDHNIYYIDSVKGRFTISRDNAKNSLYLQMNSLRAEDTAIYYCAREALASSSFDYWGQGTLVTVSS VL: EIVMTQSPATLSVSPGERVTLSCRASQSVSGNLAWYQQKPGQAPRLLIYSASTGATGVPARFSGSGSGTEFTLTISSLQSEDFALYYCQQYNKWPRTIGQGTKVEIK |
